Data on five molecules can be found in patent publication US20220016257A1 (Daiichi Sankyo, published 2022).

Experiment [1] deals with T1, Recombinant Human CDH6 Fc His chimera (R&D Systems, Inc.) (human, UniProt P55285 54-615).
T1 construct: Bought reagent; Captured on the chip by an anti-His antibody; also called the antigen; not shown: Fc portion of the bought chimera; His tag of the bought chimera
T1 sequence: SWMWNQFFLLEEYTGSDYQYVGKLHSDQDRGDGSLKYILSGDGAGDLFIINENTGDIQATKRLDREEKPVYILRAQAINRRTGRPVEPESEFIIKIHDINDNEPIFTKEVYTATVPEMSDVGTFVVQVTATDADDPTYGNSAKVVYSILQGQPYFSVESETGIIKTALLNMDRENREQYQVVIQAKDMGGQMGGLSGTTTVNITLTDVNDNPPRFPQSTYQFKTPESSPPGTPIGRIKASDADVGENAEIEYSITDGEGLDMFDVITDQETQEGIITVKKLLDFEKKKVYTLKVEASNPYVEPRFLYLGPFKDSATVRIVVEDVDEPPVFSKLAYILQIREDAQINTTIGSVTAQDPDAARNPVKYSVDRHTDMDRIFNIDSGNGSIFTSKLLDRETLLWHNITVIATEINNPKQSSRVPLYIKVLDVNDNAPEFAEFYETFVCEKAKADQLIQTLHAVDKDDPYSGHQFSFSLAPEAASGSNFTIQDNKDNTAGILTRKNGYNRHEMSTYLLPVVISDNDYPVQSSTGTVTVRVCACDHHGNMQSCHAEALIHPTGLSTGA
Put plainly: SPR (Biacore T200), antigen captured by immobilized anti-His antibody, antibody as analyte, steady state affinity model. As to the method:
The dissociation constant between the antibody and the antigen (Recombinant Human CDH6 Fc His chimera, R&D Systems, Inc.) was measured by using Biacore T200 (GE Healthcare Biosciences Corp.), according to a capture method, which comprises capturing the antigen as a ligand with the immobilized anti-His antibody and then measuring the dissociation constant using an antibody as an analyte. Approximately 1000 RU of the anti-histidine antibody (His capture kit, GE Healthcare Biosciences Corp.) was covalently bound to sensor chip CM5 (GE Healthcare Biosciences Corp.) by the amine coupling method. The antibody was also immobilized onto reference cells in the same manner as above. HBS-P+(10 mM HEPES pH 7.4, 0.15 M NaCl, 0.05% Surfactant P20) supplemented with 1 mM CaCl₂ was used as a running buffer. The antigen was added onto the anti-histidine antibody-immobilized chip for 60 seconds, and a dilution series solution (0.391 to 100 nM) of the antibody was then added at a flow rate of 30 μl/min for 300 seconds. Subsequently, the dissociation phase was monitored for 600 seconds. As a regeneration solution, a glycine solution (pH 1.5) supplemented with 5 M MgCl₂ was added twice at a flow rate of 10 μl/min for 30 seconds. A Steady State Affinity model in analysis software (BIAevaluation software, version 4.1) was used in data analysis, and the dissociation constant (KD) was calculated.
On the technique in general: In SPR one partner is held on a chip, and binding of the other changes the refractive index at the surface.

In experiment [2] the target is T2, human CDH6 (full-length, on cells) (human, UniProt P55285 54-790).
T2 construct: also called hCDH6; full-length hCDH6
T2 sequence: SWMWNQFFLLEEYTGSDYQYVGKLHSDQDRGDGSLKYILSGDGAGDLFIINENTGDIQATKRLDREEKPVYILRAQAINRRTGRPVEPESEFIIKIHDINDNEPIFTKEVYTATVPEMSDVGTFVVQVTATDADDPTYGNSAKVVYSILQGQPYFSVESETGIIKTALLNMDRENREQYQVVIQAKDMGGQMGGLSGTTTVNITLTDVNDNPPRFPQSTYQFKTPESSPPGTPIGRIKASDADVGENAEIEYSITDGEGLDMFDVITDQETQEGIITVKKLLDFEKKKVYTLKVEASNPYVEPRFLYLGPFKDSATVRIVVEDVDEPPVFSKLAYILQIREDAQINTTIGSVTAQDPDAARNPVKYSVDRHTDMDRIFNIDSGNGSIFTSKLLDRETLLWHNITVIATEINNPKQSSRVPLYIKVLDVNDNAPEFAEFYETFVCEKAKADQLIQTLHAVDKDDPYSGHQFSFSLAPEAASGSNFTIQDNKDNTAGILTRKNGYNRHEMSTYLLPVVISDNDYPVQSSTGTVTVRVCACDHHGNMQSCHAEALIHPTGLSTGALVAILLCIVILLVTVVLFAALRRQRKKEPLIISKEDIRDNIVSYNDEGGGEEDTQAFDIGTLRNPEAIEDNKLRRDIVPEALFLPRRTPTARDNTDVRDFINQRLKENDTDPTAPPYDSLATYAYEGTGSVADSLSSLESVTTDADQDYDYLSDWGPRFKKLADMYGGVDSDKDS
Put plainly: flow cytometry, 293T cells transiently transfected with pcDNA3.1-hCDH6 (open) against untransfected 293T cells (shaded), antibody 10 ng/mL, anti-rat IgG-FITC. As to the method: The human CDH6-binding activity of the rat anti-CDH6 antibody produced in Example 1)-7 was evaluated by flow cytometry. […] The cells were cultured overnight under conditions of 37° C. and 5% C02, treated with TrypLE Express (Thermo Fisher Scientific Inc.), and thereafter, a cell suspension was prepared. […] Thereafter, the cells were suspended by the addition of the rat anti-CDH6 monoclonal antibody (clone No: rG019), which had been prepared in Example 1)-7, or rat IgG control (R&D Systems, Inc.) (final concentration: 10 ng/mL). The cells were left standing at 4° C. for 1 hour. The cells were washed twice with PBS supplemented with 5% FBS, and then suspended by the addition of Anti-Rat IgG (whole molecule)-FITC antibody produced in rabbit (Sigma-Aldrich Co. LLC) that had been 50-fold diluted with PBS supplemented with 5% FBS. The cells were left standing at 4° C. for 1 hour. The cells were washed twice with PBS supplemented with 5% FBS, followed by detection using a flow cytometer (FC500; Beckman Coulter, Inc.). The data was analyzed using FlowJo (TreeStar, Inc.). In the histogram of FIG. 1, the abscissa depicts FITC fluorescence intensity indicating the amount of the antibody bound, and the ordinate depicts a cell count. […] The rat IgG control binds to neither of the cells.
Background: Flow cytometry measures light scatter and fluorescence of single cells or particles in a stream.

B1: humanized anti-CDH6 antibody H02L02 (antibody, human IgG1, kappa, V domains shown)
VH: EVQLVQSGAEVKKPGASVKVSCKASGYTFTRNFMHWVRQAPGQGLEWMGWIYPGDGETEYNQKFQGRVTITADRSTSTAYMELSSLRSEDTAVYFCARGVYGGFAGGYFDFWGQGTLVTVSS
VL: DIQMTQSPSSLSASVGDRVTITCKASQNIYKNLAWYQQKPGKAPKLLIYDANTLQTGVPSRFSGSGSGSDFTLTISSLQPEDFATYFCQQYYSGWAFGQGTKVEIKR
notes: hH02 heavy chain and hL02 light chain, human IgG1/kappa; also called H02L02 antibody; humanized hG019
Usually Kd stands for the concentration at which binding is half-saturated. With B1, the Kd in experiment [1] was 1.1 nM.

B2: humanized anti-CDH6 antibody H02L03 (antibody, human IgG1, kappa, V domains shown)
VH: EVQLVQSGAEVKKPGASVKVSCKASGYTFTRNFMHWVRQAPGQGLEWMGWIYPGDGETEYNQKFQGRVTITADRSTSTAYMELSSLRSEDTAVYFCARGVYGGFAGGYFDFWGQGTLVTVSS
VL: DIQMTQSPSSLSASVGDRVTITCKASQNIYKNLAWYQQKLGEGPKLLIYDANTLQTGVPSRFSGSGSGTDFTLTISSLQPEDFATYYCQQYYSGWAFGQGTKVEIKR
notes: hH02 heavy chain and hL03 light chain, human IgG1/kappa; also called H02L03 antibody; humanized hG019
For B2, the Kd in experiment [1] stood at 1.4 nM.

B3: humanized anti-CDH6 antibody H01L02 (antibody, human IgG1, kappa)
heavy: not shown
light: DIQMTQSPSSLSASVGDRVTITCKASQNIYKNLAWYQQKPGKAPKLLIYDANTLQTGVPSRFSGSGSGSDFTLTISSLQPEDFATYFCQQYYSGWAFGQGTKVEIKRTVAAPSVFIFPPSDEQLKSGTASVVCLLNNFYPREAKVQWKVDNALQSGNSQESVTEQDSKDSTYSLSSTLTLSKADYEKHKVYACEVTHQGLSSPVTKSFNRGEC
notes: hH01 heavy chain and hL02 light chain, human IgG1/kappa; also called H01L02 antibody; humanized hG019
Regarding B3, in experiment [1], the Kd was 1.5 nM.

B4: humanized anti-CDH6 antibody H04L02 (antibody, human IgG1, kappa, V domains shown)
VH: QVQLVQSGAEVKKPGASVKVSCKASGYTFTRNFMHWIRQAPGQGLEWMGWIYPGDGETEYAQKFQGRVTLTADRSTSTAYMELSSLRSEDTAVYYCARGVYGGFAGGYFDFWGQGTLVTVSS
VL: DIQMTQSPSSLSASVGDRVTITCKASQNIYKNLAWYQQKPGKAPKLLIYDANTLQTGVPSRFSGSGSGSDFTLTISSLQPEDFATYFCQQYYSGWAFGQGTKVEIKR
notes: hH04 heavy chain and hL02 light chain, human IgG1/kappa; also called H04L02 antibody; humanized hG019
As to B4, in experiment [1], the Kd amounted to 1.1 nM.

B5: rat anti-CDH6 monoclonal antibody rG019 (antibody, IgG2b, V domains shown)
VH: QVQLQQSGAELVKPGSSVKISCKASGYTFTRNFMHWIKQQPGNGLEWIGWIYCGDGETEYNQKFNGKATLTADRSSSTAYMELSRLTSEDSAVYFCARGVYGGFAGGYFDFWGQGVMVTVSS
VL: DIQMTQSPSLLSASVGDRVTLNCKASQNIYKNLAWYQQKLGEGPKLLIYDANTLQTGIPSRFSGSGSGSDFTLTISSLQPEDVATYFCQQYYSGWAFGGVTNLELKRA
notes: Rat antibody purified from hybridoma supernatant; also called rG019 antibody; clone rG019
As for B5, in experiment [2], the binding result is reported as “binds”.
